Results reported in the supplement of paper PMC9112550, “Optimization of the antimicrobial peptide Bac7 by deep mutational scanning” (BMC Biology, 2022).

Test system: Escherichia coli TOP10
Experiment: shrunken log2 fold change of peptide-encoding DNA abundance (4.5 h post-induction vs induction); higher = less antimicrobial activity (less host growth inhibition)
Settings: time post-induction: 4.5 h; library: site-saturation at positions 5, 18, 19, 20
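Also: peptides expressed intracellularly from a pBAD plasmid library in pooled LB shake-flask culture, induced with 0.3% L-arabinose, DNA abundance read by NGS, three biological replicates, DESeq2 with apeglm shrinkage.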

| Sequence | shrunken log2 fold change |
| --- | --- |
| RRIRYRPPRLPRPRPRPMIKPRP | 0.0227 |
| RRIRYRPPRLPRPRPRPMLFPRP | -0.347 |
| RRIRYRPPRLPRPRPRPMPAPRP | 0.348 |
| RRIRYRPPRLPRPRPRPMPHPRP | -0.202 |
| RRIRYRPPRLPRPRPRPMPPPRP | -0.331 |
| RRIRYRPPRLPRPRPRPMQCPRP | -0.00134 |
| RRIRYRPPRLPRPRPRPMQLPRP | 0.219 |
| RRIRYRPPRLPRPRPRPMQTPRP | -0.0135 |
| RRIRYRPPRLPRPRPRPMRNPRP | 0.174 |
| RRIRYRPPRLPRPRPRPMTNPRP | -1.55 |
| RRIRYRPPRLPRPRPRPMTYPRP | -0.0131 |
| RRIRYRPPRLPRPRPRPMVSPRP | -0.00277 |
| RRIRYRPPRLPRPRPRPMWYPRP | -0.884 |
| RRIRYRPPRLPRPRPRPNCAPRP | -0.214 |
| RRIRYRPPRLPRPRPRPNCIPRP | -0.197 |
| RRIRYRPPRLPRPRPRPNCTPRP | -0.126 |
| RRIRYRPPRLPRPRPRPNFHPRP | -0.612 |
| RRIRYRPPRLPRPRPRPNFMPRP | -0.821 |
| RRIRYRPPRLPRPRPRPNFSPRP | -0.401 |
| RRIRYRPPRLPRPRPRPNGRPRP | -0.311 |
| RRIRYRPPRLPRPRPRPNHEPRP | -0.657 |
| RRIRYRPPRLPRPRPRPNHPPRP | -0.125 |
| RRIRYRPPRLPRPRPRPNILPRP | -1.9 |
| RRIRYRPPRLPRPRPRPNISPRP | -0.513 |
| RRIRYRPPRLPRPRPRPNKWPRP | 0.0191 |

| Sequence | shrunken log2 fold change |
| --- | --- |
| RRIRYRPPRLPRPRPRPNLVPRP | -0.0754 |
| RRIRYRPPRLPRPRPRPNPEPRP | -0.0105 |
| RRIRYRPPRLPRPRPRPNPNPRP | -0.735 |
| RRIRYRPPRLPRPRPRPNQNPRP | -0.967 |
| RRIRYRPPRLPRPRPRPNRIPRP | -0.815 |
| RRIRYRPPRLPRPRPRPNRQPRP | -0.053 |
| RRIRYRPPRLPRPRPRPNSMPRP | -1.77 |
| RRIRYRPPRLPRPRPRPNTMPRP | -1.1 |
| RRIRYRPPRLPRPRPRPNTNPRP | -1.09 |
| RRIRYRPPRLPRPRPRPNTQPRP | -0.17 |
| RRIRYRPPRLPRPRPRPNVAPRP | -0.0308 |
| RRIRYRPPRLPRPRPRPNVKPRP | -0.386 |
| RRIRYRPPRLPRPRPRPNYQPRP | -0.79 |
| RRIRYRPPRLPRPRPRPPARPRP | 0.119 |
| RRIRYRPPRLPRPRPRPPCVPRP | 0.0199 |
| RRIRYRPPRLPRPRPRPPDLPRP | -0.212 |
| RRIRYRPPRLPRPRPRPPEQPRP | 0.357 |
| RRIRYRPPRLPRPRPRPPFEPRP | -0.0385 |
| RRIRYRPPRLPRPRPRPPIDPRP | -0.35 |
| RRIRYRPPRLPRPRPRPPISPRP | -0.501 |
| RRIRYRPPRLPRPRPRPPIVPRP | -0.756 |
| RRIRYRPPRLPRPRPRPPMDPRP | -0.582 |
| RRIRYRPPRLPRPRPRPPNHPRP | -0.626 |
| RRIRYRPPRLPRPRPRPPQIPRP | -0.178 |
| RRIRYRPPRLPRPRPRPPQRPRP | 0.00441 |

| Sequence | shrunken log2 fold change |
| --- | --- |
| RRIRYRPPRLPRPRPRPPRIPRP | -0.0175 |
| RRIRYRPPRLPRPRPRPPRLPRP | 0.0944 |
| RRIRYRPPRLPRPRPRPPRPPRP | 0.637 |
| RRIRYRPPRLPRPRPRPPSQPRP | 0.0859 |
| RRIRYRPPRLPRPRPRPPVHPRP | -0.0526 |
| RRIRYRPPRLPRPRPRPPWPPRP | 0.405 |
| RRIRYRPPRLPRPRPRPPYAPRP | -0.265 |
| RRIRYRPPRLPRPRPRPPYKPRP | -0.23 |
| RRIRYRPPRLPRPRPRPPYVPRP | -0.266 |
| RRIRYRPPRLPRPRPRPQCEPRP | -0.0652 |
| RRIRYRPPRLPRPRPRPQCMPRP | -0.931 |
| RRIRYRPPRLPRPRPRPQELPRP | -0.00884 |
| RRIRYRPPRLPRPRPRPQEPPRP | -0.273 |
| RRIRYRPPRLPRPRPRPQFAPRP | 0.0437 |
| RRIRYRPPRLPRPRPRPQGAPRP | -0.238 |
| RRIRYRPPRLPRPRPRPQHCPRP | -0.0601 |
| RRIRYRPPRLPRPRPRPQIRPRP | -0.00839 |
| RRIRYRPPRLPRPRPRPQKDPRP | -0.177 |
| RRIRYRPPRLPRPRPRPQKPPRP | -0.0745 |
| RRIRYRPPRLPRPRPRPQKTPRP | -0.0404 |
| RRIRYRPPRLPRPRPRPQKVPRP | -0.209 |
| RRIRYRPPRLPRPRPRPQNMPRP | -1.33 |
| RRIRYRPPRLPRPRPRPQNTPRP | -1.07 |
| RRIRYRPPRLPRPRPRPQSGPRP | -0.223 |
| RRIRYRPPRLPRPRPRPQSTPRP | -1.2 |

| Sequence | shrunken log2 fold change |
| --- | --- |
| RRIRYRPPRLPRPRPRPQTPPRP | -0.203 |
| RRIRYRPPRLPRPRPRPQVFPRP | 0.0195 |
| RRIRYRPPRLPRPRPRPQWCPRP | -0.219 |
| RRIRYRPPRLPRPRPRPQYHPRP | -0.873 |
| RRIRYRPPRLPRPRPRPQYIPRP | 0.0111 |
| RRIRYRPPRLPRPRPRPQYMPRP | -0.192 |
| RRIRYRPPRLPRPRPRPRAQPRP | 0.174 |
| RRIRYRPPRLPRPRPRPRCEPRP | 0.076 |
| RRIRYRPPRLPRPRPRPRDFPRP | -0.161 |
| RRIRYRPPRLPRPRPRPRDWPRP | 0.0703 |
| RRIRYRPPRLPRPRPRPREYPRP | 0.0168 |
| RRIRYRPPRLPRPRPRPRFGPRP | 0.345 |
| RRIRYRPPRLPRPRPRPRFHPRP | -0.939 |
| RRIRYRPPRLPRPRPRPRGWPRP | 0.575 |
| RRIRYRPPRLPRPRPRPRHHPRP | -0.846 |
| RRIRYRPPRLPRPRPRPRHNPRP | -0.477 |
| RRIRYRPPRLPRPRPRPRHYPRP | -0.974 |
| RRIRYRPPRLPRPRPRPRKHPRP | -0.483 |
| RRIRYRPPRLPRPRPRPRLSPRP | -0.0417 |
| RRIRYRPPRLPRPRPRPRMIPRP | -0.118 |
| RRIRYRPPRLPRPRPRPRNEPRP | -0.0133 |
| RRIRYRPPRLPRPRPRPRPEPRP | 0.254 |
| RRIRYRPPRLPRPRPRPRPPPRP | 1.01 |
| RRIRYRPPRLPRPRPRPRSHPRP | -0.267 |
| RRIRYRPPRLPRPRPRPRSKPRP | -0.439 |

| Sequence | shrunken log2 fold change |
| --- | --- |
| RRIRYRPPRLPRPRPRPRSLPRP | -0.0256 |
| RRIRYRPPRLPRPRPRPRTKPRP | 0.011 |
| RRIRYRPPRLPRPRPRPRVVPRP | -0.405 |
| RRIRYRPPRLPRPRPRPRWAPRP | -0.0106 |
| RRIRYRPPRLPRPRPRPRWKPRP | -0.295 |
| RRIRYRPPRLPRPRPRPRWNPRP | -0.102 |
| RRIRYRPPRLPRPRPRPSAIPRP | -0.939 |
| RRIRYRPPRLPRPRPRPSARPRP | -0.137 |
| RRIRYRPPRLPRPRPRPSCGPRP | -0.184 |
| RRIRYRPPRLPRPRPRPSCYPRP | -0.0789 |
| RRIRYRPPRLPRPRPRPSDCPRP | -0.0875 |
| RRIRYRPPRLPRPRPRPSHCPRP | -0.549 |
| RRIRYRPPRLPRPRPRPSHEPRP | -0.0704 |
| RRIRYRPPRLPRPRPRPSHKPRP | -1.57 |
| RRIRYRPPRLPRPRPRPSHMPRP | -0.0573 |
| RRIRYRPPRLPRPRPRPSIPPRP | -1.32 |
| RRIRYRPPRLPRPRPRPSKTPRP | -0.0513 |
| RRIRYRPPRLPRPRPRPSLAPRP | 0.0395 |
| RRIRYRPPRLPRPRPRPSLYPRP | -1 |
| RRIRYRPPRLPRPRPRPSMNPRP | -0.863 |
| RRIRYRPPRLPRPRPRPSNGPRP | 0.015 |
| RRIRYRPPRLPRPRPRPSQPPRP | -0.0421 |
| RRIRYRPPRLPRPRPRPSQVPRP | -0.518 |
| RRIRYRPPRLPRPRPRPSQWPRP | -0.162 |
| RRIRYRPPRLPRPRPRPSRAPRP | -0.113 |

| Sequence | shrunken log2 fold change |
| --- | --- |
| RRIRYRPPRLPRPRPRPSSLPRP | -0.0385 |
| RRIRYRPPRLPRPRPRPSTYPRP | -0.332 |
| RRIRYRPPRLPRPRPRPSVDPRP | -0.61 |
| RRIRYRPPRLPRPRPRPSVHPRP | -0.284 |
| RRIRYRPPRLPRPRPRPTAMPRP | 0.133 |
| RRIRYRPPRLPRPRPRPTAVPRP | -0.169 |
| RRIRYRPPRLPRPRPRPTECPRP | -0.0134 |
| RRIRYRPPRLPRPRPRPTFLPRP | -0.495 |
| RRIRYRPPRLPRPRPRPTFVPRP | -0.0102 |
| RRIRYRPPRLPRPRPRPTGQPRP | 0.0557 |
| RRIRYRPPRLPRPRPRPTHQPRP | -0.161 |
| RRIRYRPPRLPRPRPRPTKHPRP | -0.896 |
| RRIRYRPPRLPRPRPRPTMEPRP | 0.0667 |
| RRIRYRPPRLPRPRPRPTMMPRP | -1.19 |
| RRIRYRPPRLPRPRPRPTNQPRP | -0.575 |
| RRIRYRPPRLPRPRPRPTNYPRP | 1.18 |
| RRIRYRPPRLPRPRPRPTPMPRP | 0.843 |
| RRIRYRPPRLPRPRPRPTQHPRP | -0.309 |
| RRIRYRPPRLPRPRPRPTRCPRP | 0.175 |
| RRIRYRPPRLPRPRPRPTSMPRP | -1 |
| RRIRYRPPRLPRPRPRPTSSPRP | -0.0743 |
| RRIRYRPPRLPRPRPRPTSVPRP | -0.395 |
| RRIRYRPPRLPRPRPRPTTRPRP | -0.193 |
| RRIRYRPPRLPRPRPRPTWAPRP | -0.0132 |
| RRIRYRPPRLPRPRPRPTWFPRP | -0.351 |
